From publication doi:10.1101/2024.10.29.618823 (bioRxiv, 2024)
Where two headings read alike, the source gives them in different places.

Legend:
Experiment in all cases: cryo-EM structure
[1] = biological target: the molecule itself
[2] = biological target: the molecule itself; remark: listed apart in the source
[3] = biological target: the molecule itself; remark: listed apart in the source

B1: Csy3 (natural protein)
chain: MSKPILSTASVLAFERKLDPSDALMSAGAWAQRDASQEWPAVTVREKSVRGTISNRLKTKDRDPAKLDASIQSPNLQTVDVANLPSDADTLKVRFTLRVLGGAGTPSACNDAAYRDKLLQTVATYVNDQGFAELARRYAHNLANARFLWRNRVGAEAVEVRINHIRQGEVARAWRFDALAIGLRDFKADAELDALAELIASGLSGSGHVLLEVVAFARIGDGQEVFPSQELILDKGDKKGQKSKTLYSVRDAAAIHSQKIGNALRTIDTWYPDEDGLGPIAVEPYGSVTSQGKAYRQPKQKLDFYTLLDNWVLRDEAPAVEQQHYVIANLIRGGVFGEAEEK
stoichiometry N [1]: 5
stoichiometry N [2]: 6
stoichiometry N [3]: 4
